Test [1] deals with cynomolgus PAI-1 (cynomolgus (Macaca fascicularis)). The test can be described thus: crystal structure, heavy chain, average of 2 complexes.
The target in test [2] is recombinant mature human PAI-1 (24-402) stabilized in active conformation (N150H, K154T, Q319L, M354I) (human) (UniProt P05121). Kind of test: crystal structure, heavy chain, average of 4 complexes.
The target of test [3] is cynomolgus PAI-1 (cynomolgus (Macaca fascicularis)). The test can be described thus: crystal structure, light chain, average of 2 complexes.
In test [4] the target is recombinant mature human PAI-1 (24-402) stabilized in active conformation (N150H, K154T, Q319L, M354I) (human) (UniProt P05121). The test can be described thus: crystal structure, light chain, average of 4 complexes.

We go through one molecule from patent EP3620472A1.

B1: Fab A44V11 (Fab, V domains shown)
VH: QMTLKESGPTLVKPTQTLSLTCSVSGDSMTNGYWNWIRQFPGKALEYMGYITYSGSTYYNPSLKGRITITRDTSKNQYYLTLSSVTTVDTATYYCARWHYGSPYYFDYWGQGTTLTVSS
VL: DIKMTQSPSSLSASVGDRVTITCKASQDINSYLSWLQQKPGKSPKTLIYRAQRSVEGVPSRFSGSGSGQDYSLTISSLQPEDLGIYYCLQYDEFPPTFGGGTKLEIK
In the case of B1, the surface area of the interaction in test [1] was found to be 703 Å^2; in test [2], 674 Å^2; in test [3], 360 Å^2; in test [4] it was 372 Å^2.
